{
  "source": "patent US20100260668A1",
  "about": "(published 2010)",
  "binders": {"B1": {"name": "DVD474 (bispecific antibody, human IgG1, kappa)", "heavy": "not shown", "light": "DIQMTQSPSSLSASVGDRVTITCRASQVIRRSLAWYQQKPGKAPKLLIYAASNLASGVPSRFSGSGSGTDFTLTISSLQPEDFATYYCQQSNTSPLTFGQGTKVEIKRTVAAPSVFIFPPDIQMTQSPSSLSASVGDRVTITCRASQDVSTAVAWYQQKPGKAPKLLIYSASFLYSGVPSRFSGSGSGTDFTLTISSLQPEDFATTYYCQQSYTGTVTFGQGTKVEIKRTVAAPSVFIFPPSDEQLKSGTASVVCLLNNFYPREAKVQWKVDNALQSGNSQESVTEQDSKDSTYSLSSTLTLSKADYEKHKVYACEVTHQGLSSPVTKSFNRGEC"}, "B2": {"name": "DVD486 (bispecific antibody, human IgG1, kappa)", "heavy": "not shown", "light": "B1 light"}, "B3": {"name": "DVD568 (bispecific antibody, human IgG1, kappa)", "heavy": "not shown", "light": "DIQMTQSPSSLSASVGDRVTITCRASQDVSTAVAWYQQKPGKAPKLLIYSASFLYSGVPSRFSGSGSGTDFTLTISSLQPEDFATYYCQQSYTTPPTFGQGTKVEIKRTVAAPSVFIFPPAIQMTQSSSSFSVSLGDRVTITCKASEDIYNRFAWYQQKPGNAPRLLISGAASLEAGVPSRFSGSGSGQDYTLSITSLQTEDVATYYCQQYWSTPWTFGGGTKLEIKRTVAAPSVFIFPPSDEQLKSGTASVVCLLNNFYPREAKVQWKVDNALQSGNSQESVTEQDSKDSTYSLSSTLTLSKADYEKHKVYACEVTHQGLSSPVTKSFNRGEC", "notes": "HC linker short, LC linker long; also called DVD-Ig DVD568"}, "B4": {"name": "DVD566 (bispecific antibody, human IgG1, kappa)", "heavy": "not shown", "light": "DIQMTQSPSSLSASVGDRVTITCSASQDISNYLNWYQQKPGKAPKVLIYFTSSLHSGVPSRFSGSGSGTDFTLTISSLQPEDFATYYCQQYSTVPWTFGQGTKVEIKRTVAAPSVFIFPPAIQMTQSSSSFSVSLGDRVTITCKASEDIYNRFAWYQQKPGNAPRLLISGAASLEAGVPSRFSGSGSGQDYTLSITSLQTEDVATYYCQQYWSTPWTFGGGTKLEIKRTVAAPSVFIFPPSDEQLKSGTASVVCLLNNFYPREAKVQWKVDNALQSGNSQESVTEQDSKDSTYSLSSTLTLSKADYEKHKVYACEVTHQGLSSPVTKSFNRGEC", "notes": "HC linker short, LC linker long; also called DVD-Ig DVD566"}, "B5": {"name": "DVD485 (bispecific antibody, human IgG1, kappa)", "heavy": "not shown", "light": "DIQMTQSPSSLSASVGDRVTITCRASQDVSTAVAWYQQKPGKAPKLLIYSASFLYSGVPSRFSGSGSGTDFTLTISSLQPEDFATTYYCQQSYTGTVTFGQGTKVEIKRTVAAPSVFIFPPDIQMTQSPSSLSASVGDRVTITCRASQVIRRSLAWYQQKPGKAPKLLIYAASNLASGVPSRFSGSGSGTDFTLTISSLQPEDFATYYCQQSNTSPLTFGQGTKVEIKRTVAAPSVFIFPPSDEQLKSGTASVVCLLNNFYPREAKVQWKVDNALQSGNSQESVTEQDSKDSTYSLSSTLTLSKADYEKHKVYACEVTHQGLSSPVTKSFNRGEC"}, "B6": {"name": "DVD570 (bispecific antibody, human IgG1, kappa)", "heavy": "not shown", "light": "DIQMTQSPSSLSASVGDRVTITCRASQVIRRSLAWYQQKPGKAPKLLIYAASNLASGVPSRFSGSGSGTDFTLTISSLQPEDFATYYCQQSNTSPLTFGQGTKVEIKRTVAAPSVFIFPPAIQMTQSSSSFSVSLGDRVTITCKASEDIYNRFAWYQQKPGNAPRLLISGAASLEAGVPSRFSGSGSGQDYTLSITSLQTEDVATYYCQQYWSTPWTFGGGTKLEIKRTVAAPSVFIFPPSDEQLKSGTASVVCLLNNFYPREAKVQWKVDNALQSGNSQESVTEQDSKDSTYSLSSTLTLSKADYEKHKVYACEVTHQGLSSPVTKSFNRGEC", "notes": "outer AB071 (VEGF), inner AB074 (PlGF); HC linker short, LC linker long; also called DVD-Ig DVD570"}, "B7": {"name": "AB071 (antibody, human IgG1, kappa, L234A L235A, V domains shown)", "VH": "EVQLVESGGGLVQPGGSLRLSCAASGFTINASWIHWVRQAPGKGLEWVGAIYPYSGYTNYADSVKGRFTISADTSKNTAYLQMNSLRAEDTAVYYCARWGHSTSPWAMDYWGQGTLVTVSS", "VL": "DIQMTQSPSSLSASVGDRVTITCRASQVIRRSLAWYQQKPGKAPKLLIYAASNLASGVPSRFSGSGSGTDFTLTISSLQPEDFATYYCQQSNTSPLTFGQGTKVEIKR"}, "B8": {"name": "DVD476 (bispecific antibody, human IgG1, kappa)", "heavy": "not shown", "light": "DIQMTQSPSSLSASVGDRVTITCSASQDISNYLNWYQQKPGKAPKVLIYFTSSLHSGVPSRFSGSGSGTDFTLTISSLQPEDFATYYCQQYSTVPWTFGQGTKVEIKRTVAAPDIQMTQSPSSLSASVGDRVTITCRASQDVSTAVAWYQQKPGKAPKLLIYSASFLYSGVPSRFSGSGSGTDFTLTISSLQPEDFATTYYCQQSYTGTVTFGQGTKVEIKRTVAAPSVFIFPPSDEQLKSGTASVVCLLNNFYPREAKVQWKVDNALQSGNSQESVTEQDSKDSTYSLSSTLTLSKADYEKHKVYACEVTHQGLSSPVTKSFNRGEC"}, "B9": {"name": "AB012 (antibody, human IgG1, kappa, V domains shown)", "VH": "QVQLVESGGGLVKPGGSLRLSCAASGFTFSDYYMSWIRQAPGKGLEWVSYISSSGSTIYYADSVKGRFTISRDNAKNSLYLQMNSLRAEDTAVYYCARDEYNSGWYVLFDYWGQGTLVTVSS", "VL": "DIQMTQSPSSVSASVGDRVTITCRASQGISSWLAWYQQKPGKAPNLLIYEASSLQSGVPSRFGGSGSGTDFTLTISSLQPEDFATYYCQQANGFPWTFGQGTKVEIKR"}, "B10": {"name": "DVD470 (bispecific antibody, human IgG1, kappa)", "heavy": "not shown", "light": "DIQMTQSPSSLSASVGDRVTITCSASQDISNYLNWYQQKPGKAPKVLIYFTSSLHSGVPSRFSGSGSGTDFTLTISSLQPEDFATYYCQQYSTVPWTFGQGTKVEIKRTVAAPSVFIFPPDIQMTQSPSSLSASVGDRVTITCRASQDVSTAVAWYQQKPGKAPKLLIYSASFLYSGVPSRFSGSGSGTDFTLTISSLQPEDFATTYYCQQSYTGTVTFGQGTKVEIKRTVAAPSVFIFPPSDEQLKSGTASVVCLLNNFYPREAKVQWKVDNALQSGNSQESVTEQDSKDSTYSLSSTLTLSKADYEKHKVYACEVTHQGLSSPVTKSFNRGEC"}, "B11": {"name": "DVD482 (bispecific antibody, human IgG1, kappa)", "heavy": "not shown", "light": "B10 light"}, "B12": {"name": "DVD034 (bispecific antibody, human IgG1, kappa)", "heavy": "not shown", "light": "DIQMTQSPSSVSASVGDRVTITCRASQGISSWLAWYQQKPGKAPNLLIYEASSLQSGVPSRFGGSGSGTDFTLTISSLQPEDFATYYCQQANGFPWTFGQGTKVEIKRTVAAPDVVMTQSPLSLPVTPGEPASISCRSSQSLLHSNGFNYVDWYLQKPGQSPHLLIYFGSYRASGVPDRFSGSGSGTDFTLKISRVEAEDVGVYYCMQALQTPPWTFGQGTKVEIRRTVAAPSVFIFPPSDEQLKSGTASVVCLLNNFYPREAKVQWKVDNALQSGNSQESVTEQDSKDSTYSLSSTLTLSKADYEKHKVYACEVTHQGLSSPVTKSFNRGEC", "notes": "N-terminal VD HGF, C-terminal VD RON; also called DVD034H; DVD034L"}},
  "key": {"[1]": {"biological_target": "recombinant human VEGF165 (human, UniProt P15692-4 27-191)", "sequence (P15692 other isoform, or with tags, fused parts or gaps limits assumed)": "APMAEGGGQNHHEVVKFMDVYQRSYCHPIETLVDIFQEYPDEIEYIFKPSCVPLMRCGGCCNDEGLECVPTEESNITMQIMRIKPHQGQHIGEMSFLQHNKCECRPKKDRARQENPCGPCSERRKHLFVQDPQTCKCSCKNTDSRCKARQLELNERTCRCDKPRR", "assay": "cell-based or functional assay"}, "[2]": {"biological_target": "T1, VEGF (UniProt P15692 27-191, limits assumed)", "T1 construct": "bought antigen coated on the ELISA plate", "T1 sequence (P15692 other isoform, or with tags, fused parts or gaps limits assumed)": "as above", "assay": "direct bind ELISA, N-terminal VD"}, "[3]": {"biological_target": "T2, PlGF (UniProt P49763-2 21-149, limits assumed)", "T2 construct": "bought antigen coated on the ELISA plate; also called Placental GF", "T2 sequence (looked up)": "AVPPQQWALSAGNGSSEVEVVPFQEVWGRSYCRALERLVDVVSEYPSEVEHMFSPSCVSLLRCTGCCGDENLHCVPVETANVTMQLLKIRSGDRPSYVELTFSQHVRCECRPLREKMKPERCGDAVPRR", "assay": "direct bind ELISA, C-terminal VD"}, "[4]": {"biological_target": "T3, HGF (UniProt P14210 32-728)", "T3 construct": "Bought reagent", "T3 sequence (P14210 32-728 limits assumed)": "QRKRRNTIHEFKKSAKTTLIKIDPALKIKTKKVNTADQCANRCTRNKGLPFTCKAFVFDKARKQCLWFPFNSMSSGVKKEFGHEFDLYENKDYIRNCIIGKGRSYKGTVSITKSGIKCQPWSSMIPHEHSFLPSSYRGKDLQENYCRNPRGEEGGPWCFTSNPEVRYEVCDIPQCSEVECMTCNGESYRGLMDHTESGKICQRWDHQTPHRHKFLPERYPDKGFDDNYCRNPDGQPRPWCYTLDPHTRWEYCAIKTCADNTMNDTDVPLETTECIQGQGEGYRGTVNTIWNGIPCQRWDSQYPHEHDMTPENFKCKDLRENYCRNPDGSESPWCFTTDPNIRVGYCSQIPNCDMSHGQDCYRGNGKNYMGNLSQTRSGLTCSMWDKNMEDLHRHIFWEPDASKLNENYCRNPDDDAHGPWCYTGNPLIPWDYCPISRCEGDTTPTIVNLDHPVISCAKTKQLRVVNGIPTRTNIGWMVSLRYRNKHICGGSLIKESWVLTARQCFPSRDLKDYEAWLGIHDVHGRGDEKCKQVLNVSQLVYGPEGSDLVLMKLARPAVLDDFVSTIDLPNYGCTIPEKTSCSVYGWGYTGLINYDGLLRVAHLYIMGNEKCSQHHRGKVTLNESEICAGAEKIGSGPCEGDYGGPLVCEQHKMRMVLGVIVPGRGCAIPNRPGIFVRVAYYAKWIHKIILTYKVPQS", "assay": "Biacore SPR", "experimental": "The BIACORE assay (Biacore, Inc, Piscataway, N.J.) determines the affinity of antibodies or DVD-Ig with kinetic measurements of on-rate and off-rate constants. Binding of antibodies or DVD-Ig to a target antigen (for example, a purified recombinant target antigen) is determined by surface plasmon resonance-based measurements with a Biacore® 1000 or 3000 instrument (Biacore® AB, Uppsala, Sweden) using running HBS-EP (10 mM HEPES [pH 7.4], 150 mM NaCl, 3 mM EDTA, and 0.005% surfactant P20) at 25° C. […] For example, approximately 5000 RU of goat anti-mouse IgG, (Fcγ), fragment specific polyclonal antibody (Pierce Biotechnology Inc, Rockford, Ill.) diluted in 10 mM sodium acetate (pH 4.5) is directly immobilized across a CM5 research grade biosensor chip using a standard amine coupling kit according to manufacturer's instructions and procedures at 25 μg/ml. Unreacted moieties on the biosensor surface are blocked with ethanolamine. Modified carboxymethyl dextran surface in flowcell 2 and 4 is used as a reaction surface. Unmodified carboxymethyl dextran without goat anti-mouse IgG in flow cell 1 and 3 is used as the reference surface. For kinetic analysis, rate equations derived from the 1:1 Langmuir binding model are fitted simultaneously to association and dissociation phases of all eight injections (using global fit analysis) with the use of Biaevaluation 4.0.1 software. Purified antibodies or DVD-Ig are diluted in HEPES-buffered saline for capture across goat anti-mouse IgG specific reaction surfaces. Antibodies or DVD-Ig to be captured as a ligand (25 μg/ml) are injected over reaction matrices at a flow rate of 5 μl/min. The association and dissociation rate constants, kₒₙ (M⁻¹s⁻¹) and koff (s⁻¹) are determined under a continuous flow rate of 25 μl/min. Rate constants are derived by making kinetic binding measurements at different antigen concentrations ranging from 10-200 nM. The equilibrium dissociation constant (M) of the reaction between antibodies or DVD-Igs and the target antigen is then calculated from the kinetic rate constants by the following formula: KD=koff/kₒₙ. Binding is recorded as a function of time and kinetic rate constants are calculated."}},
  "data": [
    {"binder": "B1", "values": [
      {"measurement": "inhibition of HUVEC proliferation (IC50)", "setting": "[1]", "result": 0.42, "unit": "nM"}
    ]},
    {"binder": "B2", "values": [
      {"measurement": "inhibition of HUVEC proliferation (IC50)", "setting": "[1]", "result": 0.88, "unit": "nM"}
    ]},
    {"binder": "B3", "values": [
      {"measurement": "EC50", "setting": "[2]", "result": 3.14, "unit": "nM"},
      {"measurement": "EC50", "setting": "[3]", "result": 2.84, "unit": "nM"}
    ]},
    {"binder": "B4", "values": [
      {"measurement": "EC50", "setting": "[2]", "result": 1.49, "unit": "nM"},
      {"measurement": "EC50", "setting": "[3]", "result": 1.42, "unit": "nM"}
    ]},
    {"binder": "B5", "values": [
      {"measurement": "inhibition of HUVEC proliferation (IC50)", "setting": "[1]", "result": 59.5, "unit": "nM"}
    ]},
    {"binder": "B6", "values": [
      {"measurement": "EC50", "setting": "[2]", "result": 17.6, "unit": "nM"},
      {"measurement": "EC50", "setting": "[3]", "result": 1.44, "unit": "nM"}
    ]},
    {"binder": "B7", "values": [
      {"measurement": "inhibition of HUVEC proliferation (IC50)", "setting": "[1]", "result": 2.5, "unit": "nM"}
    ]},
    {"binder": "B8", "values": [
      {"measurement": "inhibition of HUVEC proliferation (IC50)", "setting": "[1]", "result": 0.24, "unit": "nM"}
    ]},
    {"binder": "B9", "values": [
      {"measurement": "Kd", "setting": "[4]", "result": "< 0.0284", "unit": "nM"},
      {"measurement": "koff", "setting": "[4]", "result": 0.000284, "unit": "s⁻¹"},
      {"measurement": "kon", "setting": "[4]", "result": "> 1e+07", "unit": "M⁻¹ s⁻¹"}
    ]},
    {"binder": "B10", "values": [
      {"measurement": "inhibition of HUVEC proliferation (IC50)", "setting": "[1]", "result": 0.45, "unit": "nM"}
    ]},
    {"binder": "B11", "values": [
      {"measurement": "inhibition of HUVEC proliferation (IC50)", "setting": "[1]", "result": 0.32, "unit": "nM"}
    ]},
    {"binder": "B12", "values": [
      {"measurement": "Kd", "setting": "[4]", "result": 0.0215, "unit": "nM"},
      {"measurement": "koff", "setting": "[4]", "result": "6.55e-05", "unit": "s⁻¹"},
      {"measurement": "kon", "setting": "[4]", "result": "3.05e+06", "unit": "M⁻¹ s⁻¹"}
    ]}
  ]
}
